This is an account of results in the supplement of paper PMC10567573.

The nature of the series: protein stability index of a GFP-peptide fusion (GPS, HEK-293T) (PSI 1-6); higher = more stable. As to conditions: c terminus: a fixed tail appended.

± gives the standard deviation.
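Also: 24-mer peptide tiles fused after GFP, lentivirally expressed, FACS-sorted into six equal bins by GFP/DsRed ratio, decoded by Illumina sequencing, PSI is the read-weighted mean bin number.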

In the case of KLGLHDNHWVPACHSFNRAIHKKA [FBXO34], the protein stability index runs as follows: (treatment: DMSO) 2.79 ± 0.14; (treatment: MLN4924 1 uM, 8 h) 2.91 ± 0.18.

Take DRILERIEDSTGLNRPGPAPLSSR [TCF25]: the protein stability index turned out to be 4.47 ± 0.21 (treatment: DMSO) and 4.66 ± 0.19 (treatment: MLN4924 1 uM, 8 h).

YHCPGSPDHQVPYGHDYPRAAYQQ [TRAF3IP2]: the protein stability index by setting is: (treatment: DMSO) 3.13 ± 0.45; (treatment: MLN4924 1 uM, 8 h) 3.5 ± 0.28.

For YQPKRYALSPKTTITMAHLLAARE [FAM98B], the protein stability index is, setting by setting: (treatment: DMSO) 2.31 ± 0.091; (treatment: MLN4924 1 uM, 8 h) 2.6 ± 0.39.

On to TLGSSFIPGEHFWLLLLTRGLVGV [SPNS1], for which the protein stability index is 3.15 ± 1.4 (treatment: DMSO) and 3.21 ± 0.84 (treatment: MLN4924 1 uM, 8 h).

Regarding IKQLRSGGTPIRGALQIEQSEESD [PTPRD], the protein stability index was determined as 4.98 ± 0.36 (treatment: DMSO) and 5.15 ± 0.21 (treatment: MLN4924 1 uM, 8 h).

As to PDEERPLRRPRPVQRTQSVPVRRP [RASAL3], the protein stability index (treatment: DMSO) turned out to be 5.19 ± 0.27 and the protein stability index (treatment: MLN4924 1 uM, 8 h) is 5.21 ± 0.18.

Regarding IYQTLFLNGENSDIKICALGEEWS [GMCL1], the protein stability index reads like this: (treatment: DMSO) 2.26 ± 0.18; (treatment: MLN4924 1 uM, 8 h) 2.16 ± 0.19.

As for KKINTEGDVPPSMSGSCAVCVDRV [KLHDC2], the protein stability index runs as follows: (treatment: DMSO) 4.18 ± 0.34; (treatment: MLN4924 1 uM, 8 h) 4.29 ± 0.17.

Take MQAASSKMVSAEISENRKRQWPTK [SDE2]: the protein stability index by setting is: (treatment: DMSO) 4.33 ± 0.33; (treatment: MLN4924 1 uM, 8 h) 4.7 ± 0.17.

In turn, MAEGSAVSDPQHAARLLRALSSFR [GAN] returned a protein stability index (treatment: DMSO) of 3.16 ± 0.28 and a protein stability index (treatment: MLN4924 1 uM, 8 h) of 3.3 ± 0.24.

For LYLCPNGARCATWFQDPTRFTGTM [SLC25A39], the protein stability index is 2.82 ± 0.64 (treatment: DMSO) and 2.7 ± 0.63 (treatment: MLN4924 1 uM, 8 h).

In the case of PWDKNPEALAKWAEGRTGFPWIDA [CRY1], the protein stability index is 3.08 ± 0.17 (treatment: DMSO) and 3.04 ± 0.2 (treatment: MLN4924 1 uM, 8 h).

In the case of SCLKAIVLFTSDACGLSDVAHVES [NR2F2], the protein stability index amounted to 2.43 ± 0.7 (treatment: DMSO) and 2.08 ± 0.36 (treatment: MLN4924 1 uM, 8 h).

Turning to ATGMEVGWYRPPFSRVVHLYRNGK [MOG], the protein stability index runs as follows: (treatment: DMSO) 3.12 ± 0.36; (treatment: MLN4924 1 uM, 8 h) 2.98 ± 0.14.

In the case of REEEEKTPPETKPDPPVNFLRQKV [PCMTD2], the protein stability index by setting is: (treatment: DMSO) 5.34 ± 0.26; (treatment: MLN4924 1 uM, 8 h) 5.29 ± 0.087.

For the sequence IAVLGIVMLKRIHSLYRRTGASFQ [SCAMP3], the protein stability index reads like this: (treatment: DMSO) 2.34 ± 0.53; (treatment: MLN4924 1 uM, 8 h) 2.25 ± 0.18.

Turning to IPSTQFDAAHPTNVQRLAEPSQML [CTNNB1], the protein stability index runs as follows: (treatment: DMSO) 4.24 ± 0.18; (treatment: MLN4924 1 uM, 8 h) 4.34 ± 0.09.

Take ARSVGLKWRKVGRSLQRGCRALRD [TRADD]: the protein stability index is 2.57 ± 0.32 (treatment: DMSO) and 2.55 ± 0.46 (treatment: MLN4924 1 uM, 8 h).

In the case of VLTEPILIETYTGLMSFIGNRNKL [TPRG1], the protein stability index came out at 2.21 ± 0.36 (treatment: DMSO) and 2.27 ± 0.51 (treatment: MLN4924 1 uM, 8 h).

As for QAASRIIRNEQFAIRRFQSMPVRL [CDC25B], the protein stability index by setting is: (treatment: DMSO) 2.75 ± 0.31; (treatment: MLN4924 1 uM, 8 h) 2.74 ± 0.49.

Sequence VTYMNMTAYNKGRLQSSFWIVDKQ [PLD5] yielded a protein stability index (treatment: DMSO) of 2.39 ± 0.6 and a protein stability index (treatment: MLN4924 1 uM, 8 h) of 2.33 ± 0.39.

DAVGMLGIEEVTYENCLQALADVE [NLN]: the protein stability index by setting is: (treatment: DMSO) 4.25 ± 0.27; (treatment: MLN4924 1 uM, 8 h) 3.9 ± 0.34.

With DCGPSRADRCSPKEDQAWDGASQD [FBXO34], the protein stability index (treatment: DMSO) turned out to be 5.37 ± 0.24 and the protein stability index (treatment: MLN4924 1 uM, 8 h) is 5.25 ± 0.28.

Consider HEKIGFPAARRCHSCVQIKNDVFI [KLHDC10], for which the protein stability index reads like this: (treatment: DMSO) 1.89 ± 0.31; (treatment: MLN4924 1 uM, 8 h) 1.73 ± 0.27.

Take NSHVYNGRTHQWKPLYPDDYVHIS [ADAMTSL2]: the protein stability index stood at 2.78 ± 0.31 (treatment: DMSO) and 2.8 ± 0.34 (treatment: MLN4924 1 uM, 8 h).

Consider QTEETQETALTLACCGGFLEVADF [ANKRD17], for which the protein stability index was 3.79 ± 0.28 (treatment: DMSO) and 3.96 ± 0.28 (treatment: MLN4924 1 uM, 8 h).

As to VSVTYCSVSQDFPGSNLNLLTNNS [ETS2], the protein stability index was 2.59 ± 0.39 (treatment: DMSO) and 2.32 ± 0.39 (treatment: MLN4924 1 uM, 8 h).

For EVYYDGQWGTVCDDDFSIHAAHVV [LOXL2], the protein stability index runs as follows: (treatment: DMSO) 2.62 ± 0.31; (treatment: MLN4924 1 uM, 8 h) 2.6 ± 0.37.

KNKKSSTGEASENGLEDIDRILER [TCF25] showed a protein stability index (treatment: DMSO) of 5.22 ± 0.48 and a protein stability index (treatment: MLN4924 1 uM, 8 h) of 5.49 ± 0.18.

As for TRRAQADLAYQLQVAKTKQQIEEQ [FLOT1], the protein stability index runs as follows: (treatment: DMSO) 4.82 ± 0.19; (treatment: MLN4924 1 uM, 8 h) 4.8 ± 0.2.

For the sequence IHAELSKLVKKHAAQRSTETALYR [FKBP8], the protein stability index is, setting by setting: (treatment: DMSO) 2.94 ± 0.31; (treatment: MLN4924 1 uM, 8 h) 2.69 ± 0.44.

FNNGEYAEAEALYSAYIRRCACAA [TTC32] gave a protein stability index (treatment: DMSO) of 2.39 ± 0.19 and a protein stability index (treatment: MLN4924 1 uM, 8 h) of 2.64 ± 0.46.

As for ADSSAQAAAQAPENFQEGKDMSES [TAF7L], the protein stability index by setting is: (treatment: DMSO) 5.72 ± 0.14; (treatment: MLN4924 1 uM, 8 h) 5.49 ± 0.39.

As for QLNGTANDTAGPELPDPLGGLLDE [NFE2L1], the protein stability index (treatment: DMSO) was determined as 5.11 ± 0.32 and the protein stability index (treatment: MLN4924 1 uM, 8 h) amounted to 5.37 ± 0.32.

Turning to SWNVAVKFLMARKFDVLRAIELFH [PTPN9], the protein stability index worked out at 2.18 ± 0.25 (treatment: DMSO) and 2.31 ± 0.6 (treatment: MLN4924 1 uM, 8 h).
